Experimental data as given in patent US20120190623A1.
pKd: −log10 of the molar value.

Key:
[1] = molecular target: A1/A3-C1-C2 heterodimer of thrombin-cleaved FVIII (human) (UniProt P00451); assay: optical biosensor, purified protein after thrombin cleavage
[2] = molecular target: IR8 (90/b/73 R336I/R562K/R740A; del795-1688/Arg336Iso/Arg562Lys/Arg740Ala) (human) (UniProt P00451); assay: cell-based or functional assay
[3] = molecular target: wild-type factor VIII (FVIII WT) (human) (UniProt P00451); assay: cell-based or functional assay
[4] = molecular target: von Willebrand factor (vWF) (human) (UniProt P04275); assay: FVIII-vWF binding ELISA, anti-A2 domain trap, vWF from FVIII-deficient plasma, anti-vWF-HRP detection, no ESH8
[5] = molecular target: von Willebrand factor (vWF) (human) (UniProt P04275); assay: biosensor (SPR), IR8 captured on immobilized anti-fVIII antibody; without ESH8
[6] = molecular target: von Willebrand factor (vWF) (human) (UniProt P04275); assay: ELISA and affinity biosensor analysis
[7] = molecular target: von Willebrand factor (vWF) (human) (UniProt P04275); assay: summary of ELISA and biosensor results
vWF (human) [8] = molecular target: vWF (human) (UniProt P04275); assay: biosensor (SPR), IR8 captured on immobilized anti-fVIII antibody; with ESH8
[9] = molecular target: von Willebrand factor (vWF) (human) (UniProt P04275); assay: FVIII-vWF binding ELISA, anti-A2 domain trap, vWF from FVIII-deficient plasma, anti-vWF-HRP detection, with ESH8
[10] = molecular target: von Willebrand factor (vWF) (human) (UniProt P04275); assay: in vitro binding to vWF, method not named in the sentence (ELISA / affinity biosensor)
vWF (human) [11] = molecular target: vWF (human) (UniProt P04275); assay: biosensor (SPR), fVIII captured on immobilized anti-fVIII antibody
[12] = molecular target: IR8 (90/b/73 R336I/R562K/R740A; del795-1688/Arg336Iso/Arg562Lys/Arg740Ala) (human) (UniProt P00451); assay: optical biosensor; IR8 captured on immobilized Mab NMC-VIII/5, vWF added at 10 nM
[13] = molecular target: IR8 (90/b/73 R336I/R562K/R740A; del795-1688/Arg336Iso/Arg562Lys/Arg740Ala) (human) (UniProt P00451); assay: optical biosensor; IR8 (30 nM) captured on immobilized Mab NMC-VIII/5, vWF added at 10 nM

Sequence of IR8 (90/b/73 R336I/R562K/R740A; del795-1688/Arg336Iso/Arg562Lys/Arg740Ala) (human) (P00451 other isoform, or with tags, fused parts or gaps R336I R562K R740A R562K R740A R336I R562K R740A R562K R740A, form in doubt): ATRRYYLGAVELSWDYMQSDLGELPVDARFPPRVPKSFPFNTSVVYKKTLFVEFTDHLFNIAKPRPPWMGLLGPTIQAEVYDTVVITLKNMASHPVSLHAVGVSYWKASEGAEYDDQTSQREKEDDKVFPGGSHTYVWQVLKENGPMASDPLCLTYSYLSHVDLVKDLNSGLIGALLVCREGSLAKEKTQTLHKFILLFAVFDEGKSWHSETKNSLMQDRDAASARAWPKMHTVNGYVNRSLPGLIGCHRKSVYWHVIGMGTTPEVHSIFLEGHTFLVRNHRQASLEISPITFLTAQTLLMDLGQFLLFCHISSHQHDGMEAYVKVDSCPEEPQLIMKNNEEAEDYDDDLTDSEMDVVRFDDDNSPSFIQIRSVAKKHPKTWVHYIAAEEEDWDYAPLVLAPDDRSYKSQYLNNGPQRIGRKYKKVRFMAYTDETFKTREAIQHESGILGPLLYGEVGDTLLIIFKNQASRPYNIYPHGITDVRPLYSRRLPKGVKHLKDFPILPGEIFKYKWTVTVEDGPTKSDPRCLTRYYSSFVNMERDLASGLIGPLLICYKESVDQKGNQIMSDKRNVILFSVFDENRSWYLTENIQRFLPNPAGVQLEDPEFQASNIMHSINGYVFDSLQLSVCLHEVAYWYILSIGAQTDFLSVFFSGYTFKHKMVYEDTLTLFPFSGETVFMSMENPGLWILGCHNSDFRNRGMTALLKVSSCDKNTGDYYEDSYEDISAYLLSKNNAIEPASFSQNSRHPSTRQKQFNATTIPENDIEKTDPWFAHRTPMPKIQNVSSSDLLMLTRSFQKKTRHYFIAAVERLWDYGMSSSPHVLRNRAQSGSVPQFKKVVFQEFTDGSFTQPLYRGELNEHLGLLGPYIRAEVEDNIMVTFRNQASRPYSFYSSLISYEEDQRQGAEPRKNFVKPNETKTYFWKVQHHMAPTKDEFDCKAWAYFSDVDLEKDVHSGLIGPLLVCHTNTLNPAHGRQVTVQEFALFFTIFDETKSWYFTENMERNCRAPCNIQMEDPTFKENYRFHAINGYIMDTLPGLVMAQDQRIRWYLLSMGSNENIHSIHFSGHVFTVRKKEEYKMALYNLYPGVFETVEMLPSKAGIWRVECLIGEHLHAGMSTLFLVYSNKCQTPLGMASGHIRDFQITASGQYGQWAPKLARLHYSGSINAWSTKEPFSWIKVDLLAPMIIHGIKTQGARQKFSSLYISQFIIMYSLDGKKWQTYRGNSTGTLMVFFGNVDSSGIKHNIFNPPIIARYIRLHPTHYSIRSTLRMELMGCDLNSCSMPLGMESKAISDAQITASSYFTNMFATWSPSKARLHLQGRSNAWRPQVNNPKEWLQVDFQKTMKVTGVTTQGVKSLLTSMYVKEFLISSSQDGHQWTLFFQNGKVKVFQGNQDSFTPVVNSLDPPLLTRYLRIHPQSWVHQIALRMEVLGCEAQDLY
Sequence of A1/A3-C1-C2 heterodimer of thrombin-cleaved FVIII (human) (P00451 20-391, chain 1 of 2): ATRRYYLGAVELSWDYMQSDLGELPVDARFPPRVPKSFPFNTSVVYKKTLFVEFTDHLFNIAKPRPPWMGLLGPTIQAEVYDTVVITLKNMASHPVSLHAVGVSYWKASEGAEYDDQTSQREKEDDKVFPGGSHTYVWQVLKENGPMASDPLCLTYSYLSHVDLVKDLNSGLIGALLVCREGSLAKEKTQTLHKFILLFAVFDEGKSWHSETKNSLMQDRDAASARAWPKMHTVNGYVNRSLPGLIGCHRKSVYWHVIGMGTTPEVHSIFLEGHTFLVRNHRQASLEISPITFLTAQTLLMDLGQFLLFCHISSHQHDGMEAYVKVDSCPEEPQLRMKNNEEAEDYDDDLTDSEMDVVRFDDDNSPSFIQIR
Sequence of A1/A3-C1-C2 heterodimer of thrombin-cleaved FVIII (human) (P00451 1709-2351, chain 2 of 2): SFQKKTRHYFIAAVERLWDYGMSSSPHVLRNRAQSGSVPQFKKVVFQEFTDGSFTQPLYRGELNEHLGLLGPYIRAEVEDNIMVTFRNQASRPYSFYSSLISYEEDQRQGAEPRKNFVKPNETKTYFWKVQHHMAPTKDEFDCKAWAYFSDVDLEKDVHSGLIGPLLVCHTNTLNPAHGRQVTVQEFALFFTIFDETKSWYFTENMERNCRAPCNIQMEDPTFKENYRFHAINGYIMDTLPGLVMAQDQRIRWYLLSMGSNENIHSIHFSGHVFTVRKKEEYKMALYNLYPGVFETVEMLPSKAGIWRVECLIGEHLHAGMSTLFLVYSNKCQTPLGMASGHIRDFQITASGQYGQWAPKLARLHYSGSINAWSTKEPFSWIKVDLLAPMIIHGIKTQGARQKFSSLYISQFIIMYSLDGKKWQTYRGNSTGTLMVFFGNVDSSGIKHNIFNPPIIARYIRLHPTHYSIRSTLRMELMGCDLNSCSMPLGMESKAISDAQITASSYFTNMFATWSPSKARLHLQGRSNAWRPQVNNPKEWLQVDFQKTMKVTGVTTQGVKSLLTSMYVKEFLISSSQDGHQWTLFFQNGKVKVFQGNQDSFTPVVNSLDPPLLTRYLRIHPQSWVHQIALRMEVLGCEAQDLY
Sequence of IR8/ESH8 (P00451 whole entry, one chain of several): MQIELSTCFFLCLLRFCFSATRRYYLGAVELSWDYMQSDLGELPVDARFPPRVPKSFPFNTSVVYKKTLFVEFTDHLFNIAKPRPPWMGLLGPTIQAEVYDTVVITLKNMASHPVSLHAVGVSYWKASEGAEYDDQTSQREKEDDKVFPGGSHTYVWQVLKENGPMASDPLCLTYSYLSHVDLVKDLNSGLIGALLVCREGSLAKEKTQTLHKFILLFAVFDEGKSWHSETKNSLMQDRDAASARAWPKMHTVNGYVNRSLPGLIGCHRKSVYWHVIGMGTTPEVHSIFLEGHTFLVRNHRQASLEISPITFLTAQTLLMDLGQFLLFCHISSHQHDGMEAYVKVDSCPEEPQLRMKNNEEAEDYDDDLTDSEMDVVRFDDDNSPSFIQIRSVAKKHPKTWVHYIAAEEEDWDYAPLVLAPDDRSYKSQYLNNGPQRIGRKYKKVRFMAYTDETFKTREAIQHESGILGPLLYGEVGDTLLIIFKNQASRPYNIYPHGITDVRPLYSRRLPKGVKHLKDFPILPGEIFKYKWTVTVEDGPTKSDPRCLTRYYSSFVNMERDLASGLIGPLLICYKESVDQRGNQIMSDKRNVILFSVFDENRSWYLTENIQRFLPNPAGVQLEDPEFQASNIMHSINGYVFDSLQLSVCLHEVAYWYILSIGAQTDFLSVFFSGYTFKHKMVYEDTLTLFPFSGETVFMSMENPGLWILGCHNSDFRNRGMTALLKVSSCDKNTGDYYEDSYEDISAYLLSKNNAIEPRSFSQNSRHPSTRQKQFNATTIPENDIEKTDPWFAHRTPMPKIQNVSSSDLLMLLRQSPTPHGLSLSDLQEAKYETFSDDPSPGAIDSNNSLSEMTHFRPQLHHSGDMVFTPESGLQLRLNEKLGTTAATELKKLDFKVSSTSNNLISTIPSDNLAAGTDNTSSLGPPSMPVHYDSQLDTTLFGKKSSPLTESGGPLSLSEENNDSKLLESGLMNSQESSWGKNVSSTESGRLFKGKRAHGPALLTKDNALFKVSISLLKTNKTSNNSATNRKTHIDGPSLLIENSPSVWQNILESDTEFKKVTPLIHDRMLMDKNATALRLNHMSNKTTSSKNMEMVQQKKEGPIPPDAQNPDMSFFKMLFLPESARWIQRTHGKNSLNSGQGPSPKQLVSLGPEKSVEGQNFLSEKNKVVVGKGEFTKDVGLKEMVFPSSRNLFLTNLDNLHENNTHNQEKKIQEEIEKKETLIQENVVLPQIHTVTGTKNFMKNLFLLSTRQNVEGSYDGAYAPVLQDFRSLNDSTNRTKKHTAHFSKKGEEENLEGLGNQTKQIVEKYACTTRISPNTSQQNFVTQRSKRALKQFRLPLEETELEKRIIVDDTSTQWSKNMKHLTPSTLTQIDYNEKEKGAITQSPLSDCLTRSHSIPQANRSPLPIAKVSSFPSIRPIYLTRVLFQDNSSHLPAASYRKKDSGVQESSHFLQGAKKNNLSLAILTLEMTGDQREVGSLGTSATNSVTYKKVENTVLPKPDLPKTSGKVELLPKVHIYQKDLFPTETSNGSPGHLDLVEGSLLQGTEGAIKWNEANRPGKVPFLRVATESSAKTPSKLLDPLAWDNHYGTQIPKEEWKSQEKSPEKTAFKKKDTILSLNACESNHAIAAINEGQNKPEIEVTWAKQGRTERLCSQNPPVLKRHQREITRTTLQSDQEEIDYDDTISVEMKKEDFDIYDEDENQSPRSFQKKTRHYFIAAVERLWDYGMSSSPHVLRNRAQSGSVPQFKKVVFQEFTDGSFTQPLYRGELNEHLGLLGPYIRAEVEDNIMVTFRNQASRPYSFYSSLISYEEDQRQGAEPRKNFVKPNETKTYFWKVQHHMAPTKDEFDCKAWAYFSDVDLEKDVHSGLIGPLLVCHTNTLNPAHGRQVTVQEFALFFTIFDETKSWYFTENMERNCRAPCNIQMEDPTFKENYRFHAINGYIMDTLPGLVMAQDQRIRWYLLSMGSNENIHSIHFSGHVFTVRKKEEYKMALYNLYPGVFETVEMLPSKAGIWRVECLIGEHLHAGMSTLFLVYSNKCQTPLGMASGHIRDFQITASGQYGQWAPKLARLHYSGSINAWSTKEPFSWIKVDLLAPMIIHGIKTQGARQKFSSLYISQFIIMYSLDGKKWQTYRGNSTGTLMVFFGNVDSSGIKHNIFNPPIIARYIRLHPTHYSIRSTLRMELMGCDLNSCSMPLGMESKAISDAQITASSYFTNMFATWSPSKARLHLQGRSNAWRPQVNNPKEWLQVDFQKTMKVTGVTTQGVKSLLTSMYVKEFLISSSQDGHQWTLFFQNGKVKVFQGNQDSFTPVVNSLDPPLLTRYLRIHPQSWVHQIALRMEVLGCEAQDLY

**Q.** “A2 subunit of thrombin-cleaved R698L B-domainless FVIII (from UniProt P00451 392-759)” was tested. Which fold increased rate of A2 subunit dissociation compared to a B domainless FVIII control [1] did it give?
**A.** Its fold increased rate of A2 subunit dissociation compared to a B domainless FVIII control is 2 fold.

**Q.** Which fold increased rate of A2 subunit dissociation compared to a B domainless FVIII control [1] does the source give for “A2 subunit of thrombin-cleaved R698W B-domainless FVIII (from UniProt P00451 392-759)” here?
**A.** The fold increased rate of A2 subunit dissociation compared to a B domainless FVIII control was 3 fold.

**Q.** Which % Of Initial Activity (APTT, 4 hour incubation at 37 C with FVIII-deficient plasma), + ESH8 (% of initial activity) [2] does the source give for “ESH8, anti-light chain factor VIII mouse monoclonal antibody” here?
**A.** Its % Of Initial Activity (APTT, 4 hour incubation at 37 C with FVIII-deficient plasma), + ESH8 (% of initial activity) is 120.

**Q.** What about the % Of Initial Activity (APTT, 4 hour incubation at 37 C with FVIII-deficient plasma), + ESH8 (% of initial activity) [3] of the same substance?
**A.** Its % Of Initial Activity (APTT, 4 hour incubation at 37 C with FVIII-deficient plasma), + ESH8 (% of initial activity) is 29.

**Q.** For “IR8 (90/b/73 R336I/R562K/R740A; del795-1688/Arg336Iso/Arg562Lys/Arg740Ala) (from UniProt P00451 20-759; P00451 1708-2351)”, which fold lower binding affinity compared to wild-type FVIII [4] is on record?
**A.** Its fold lower binding affinity compared to wild-type FVIII is 10 fold.

**Q.** What about the pKd [5] of the same substance?
**A.** Its pKd is 7.98.

**Q.** And the fold reduced affinity compared to rFVIII [6]?
**A.** The fold reduced affinity compared to rFVIII was 20 fold.

**Q.** And the fold lower affinity than FVIII WT [7]?
**A.** The fold lower affinity than FVIII WT was 10 fold.

**Q.** How did the koff (vWF (human) [8]) turn out when “IR8/ESH8 (from UniProt P00451 20-759; P00451 1708-2351)” was run?
**A.** The koff was 0.0025 s⁻¹.

**Q.** Which results are given for “IR8/ESH8 complex (from UniProt P00451 20-759; P00451 1708-2351)”?
**A.** fold lower binding affinity compared to wild-type FVIII [9]: 2 fold; pKd [10]: 8.89

**Q.** pdfVIII was tested. Which pKd (vWF (human) [11]) did it give?
**A.** Its pKd is 9.51.

**Q.** “von Willebrand factor (vWF) (from UniProt P04275 764-2813)” was tested. Which pKd [12] did it give?
**A.** Its pKd is 7.53.

**Q.** What about the koff [12] of the same substance?
**A.** The koff was 0.0042 s⁻¹.

**Q.** What about the kon [13] of the same substance?
**A.** Its kon is 140000 M⁻¹ s⁻¹.

**Q.** With “wild-type factor VIII (FVIII WT) (from UniProt P00451 20-2351)” as the substance, how does the pKd [10] read?
**A.** The pKd was 9.52.
